Our source for the Kd values is patent US20200317768A1 (published 2020).

Where a chain is given by its changes, count along the chain named.

Holding throughout (assay): SPR (BIACORE), captured antibody, FcgR as analyte
Test [1] deals with T1, cynomolgus monkey FcγRIIIaS extracellular domain, His-tagged (cynomolgus monkey, UniProt Q8SPW2 21-206 at identity 1.00)).
T1 construct: also called cyno FcγRIIIaS; cynoFcγRIIIaS; not shown: C-terminal His-tag
T1 chain: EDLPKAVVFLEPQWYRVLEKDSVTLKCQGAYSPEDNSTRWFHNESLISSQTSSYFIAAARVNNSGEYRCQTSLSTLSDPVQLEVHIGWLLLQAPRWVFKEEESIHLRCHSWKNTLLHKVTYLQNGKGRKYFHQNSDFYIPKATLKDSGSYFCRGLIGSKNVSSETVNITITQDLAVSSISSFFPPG
As to the method:
(§1) The kinetic analysis of interactions between these antibodies and FcγR was carried out using BIACORE® T200 or BIACORE® 4000 (GE Healthcare). HBS-EP+ (GE Healthcare) was used as the running buffer, and the measurement temperature was set to 25° C. A chip produced by immobilizing Protein A. Protein A/G or mouse anti-human IgG kappa light chain (BD Biosciences) onto a Series S Sensor Chip CM4 or CM5 (GE Healthcare) by the amine-coupling method was used. […] After the measurement, the antibody captured on the chip was washed off by allowing reaction with 10 mM glycine-HCl, pH1.5 and 25 mM NaOH so that the chip was regenerated and used repeatedly. The sensorgrams obtained as measurement results were analyzed by the 1:1 Langmuir binding model using the BIACORE® Evaluation Software to calculate the binding rate constant ka (L/mol/s) and dissociation rate constant kd (l/s), and the dissociation constant KD (mol/L) was calculated from these values. […] Regarding such interactions, KD values were calculated using the following 1:1 binding model described in BIACORE® T100 Software Handbook BR1006-48 Edition AE.

The target in test [2] is T2, human FcγRIIaR extracellular domain, His-tagged (human, UniProt P12318 34-217).
T2 construct: also called human FcγRIIa (type R); FcgRIIaR; not shown: C-terminal His-tag
T2 chain: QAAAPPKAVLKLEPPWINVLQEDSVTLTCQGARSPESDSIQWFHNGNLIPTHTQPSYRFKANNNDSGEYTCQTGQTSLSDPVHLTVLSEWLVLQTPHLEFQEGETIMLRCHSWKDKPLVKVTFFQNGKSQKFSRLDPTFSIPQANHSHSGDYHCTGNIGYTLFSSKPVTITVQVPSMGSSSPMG
As for the experimental part: as §1

Test [3] addresses T3, cynomolgus monkey FcγRIIb extracellular domain, His-tagged (cynomolgus monkey).
T3 construct: also called cyno FcγRIIb; cynoFcγRIIb; not shown: C-terminal His-tag
T3 chain: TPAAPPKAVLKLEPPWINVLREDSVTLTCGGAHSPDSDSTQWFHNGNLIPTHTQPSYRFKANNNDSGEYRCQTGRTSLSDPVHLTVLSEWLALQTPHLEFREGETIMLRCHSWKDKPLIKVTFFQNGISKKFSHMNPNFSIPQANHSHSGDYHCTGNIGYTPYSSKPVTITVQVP
As for the experimental part: as §1

Test [4] addresses T4, human FcγRIIIaV extracellular domain, His-tagged (human, UniProt P08637 17-208).
T4 construct: also called FcgRIIIaV; not shown: C-terminal His-tag
As for the experimental part: as §1

The target in test [5] is T5, human FcγRIIb extracellular domain, His-tagged (human, UniProt P31994 43-217).
T5 construct: also called FcgRIIb (human); not shown: C-terminal His-tag
T5 sequence: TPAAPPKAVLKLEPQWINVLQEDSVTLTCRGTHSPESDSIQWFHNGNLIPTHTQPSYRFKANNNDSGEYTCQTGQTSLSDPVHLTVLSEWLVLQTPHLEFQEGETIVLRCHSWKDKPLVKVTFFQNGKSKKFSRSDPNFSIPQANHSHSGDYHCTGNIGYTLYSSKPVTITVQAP
As to the method: as §1

For test [6], the target named is T6, human FcγRIIaH extracellular domain, His-tagged (human, UniProt P12318 34-217).
T6 construct: also called human FcγRIIa (type H); FcgRIIaH; not shown: C-terminal His-tag
T6 sequence: T2 chain with R134H
As to the method:
as §1

The target in test [7] is T7, cynomolgus monkey FcγRIIa2 extracellular domain, His-tagged (cynomolgus monkey).
T7 construct: also called cyno FcγRIIa2; cynoFcgRIIa2; not shown: C-terminal His-tag
T7 chain: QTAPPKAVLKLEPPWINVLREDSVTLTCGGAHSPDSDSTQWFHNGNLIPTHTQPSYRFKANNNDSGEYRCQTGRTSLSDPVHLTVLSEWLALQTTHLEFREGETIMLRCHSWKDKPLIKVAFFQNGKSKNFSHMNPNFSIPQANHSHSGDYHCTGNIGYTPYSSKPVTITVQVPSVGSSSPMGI
As for the experimental part: as §1

The target in test [8] is T8, cynomolgus monkey FcγRIIa1 extracellular domain, His-tagged (cynomolgus monkey).
T8 construct: also called cyno FcγRIIa1; cynoFcgRIIa1; not shown: C-terminal His-tag
T8 chain: T7 chain with T95P, A121T, K127I, S128A, N130K, N135D, Q142R
As for the experimental part: as §1

T4 sequence (P08637 17-208 F176V): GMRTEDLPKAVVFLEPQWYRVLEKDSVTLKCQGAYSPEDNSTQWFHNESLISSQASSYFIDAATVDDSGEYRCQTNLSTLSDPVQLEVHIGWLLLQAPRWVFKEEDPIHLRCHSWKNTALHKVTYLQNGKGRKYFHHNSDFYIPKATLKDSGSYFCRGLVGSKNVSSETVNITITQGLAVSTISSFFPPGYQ

B1: MS_M103205H795-SG1/M103202L889-SK1 (antibody, human IgG1, kappa)
heavy: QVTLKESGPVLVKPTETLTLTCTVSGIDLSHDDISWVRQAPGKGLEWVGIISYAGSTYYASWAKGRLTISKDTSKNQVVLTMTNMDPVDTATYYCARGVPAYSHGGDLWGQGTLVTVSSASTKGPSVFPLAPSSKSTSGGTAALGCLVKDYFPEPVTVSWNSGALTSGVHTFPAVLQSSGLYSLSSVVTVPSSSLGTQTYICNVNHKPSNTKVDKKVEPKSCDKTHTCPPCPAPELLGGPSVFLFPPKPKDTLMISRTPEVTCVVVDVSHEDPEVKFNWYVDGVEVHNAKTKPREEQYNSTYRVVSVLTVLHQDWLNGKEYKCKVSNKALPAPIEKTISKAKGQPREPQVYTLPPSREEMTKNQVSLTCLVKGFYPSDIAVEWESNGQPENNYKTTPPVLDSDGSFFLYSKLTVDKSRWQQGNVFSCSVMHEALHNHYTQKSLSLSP
light: DIVMTQSPATLSLSPGERATLSCTSSQSVYHANWLSWFQQKPGQPPKLLIYWASTLAYGVPSRFSGSGSGTDFTLTISSLQPEDAATYYCAGGYGGGRYAFGQGTKVEIKRTVAAPSVFIFPPSDEQLKSGTASVVCLLNNFYPREAKVQWKVDNALQSGNSQESVTEQDSKDSTYSLSSTLTLSKADYEKHKVYACEVTHQGLSSPVTKSFNRGEC
notes: Parent antibody with heavy chain constant region SG1; also called MS1032LO06-SG1; copies: 2 + 2
With B1, the Kd (usually the equilibrium constant for the complex coming apart) turned out to be 360 nM in test [1]; 1100 nM in test [2]; 1800 nM in test [3]; 810 nM in test [4]; 4600 nM in test [5]; 690 nM in test [6]. Further, the results for the dissociation constant Kd in test [7] and in test [8] were 5100 nM and 3200 nM, respectively.

B2: M103205H795-MY443/M103202L889-SK1 (antibody, human IgG1, kappa)
heavy: QVTLKESGPVLVKPTETLTLTCTVSGIDLSHDDISWVRQAPGKGLEWVGIISYAGSTYYASWAKGRLTISKDTSKNQVVLTMTNMDPVDTATYYCARGVPAYSHGGDLWGQGTLVTVSSASTKGPSVFPLAPSSKSTSGGTAALGCLVKDYFPEPVTVSWNSGALTSGVHTFPAVLQSSGLYSLSSVVTVPSSSLGTQTYICNVNHKPSNTKVDKKVEPKSCDKTHTCPPCPAEELLTGPSVFLFPPKPKDTLMISRTPEVTCVVVDVSDEDPEVKFNWYVDGVEVHNAKTKPREEQYNSTYRVVSVLTVLHQDWLNGKEYKCKVSNKALPKPIEKTISKAKGQPREPQVYTLPPSREEMTKNQVSLTCLVKGFYPSDIAVEWESNGQPENNYKTTPPVLDSDGSFFLYSKLTVDKSRWQQGNVFSCSVMHEALHNHYTQKSLSLSP
light: B1 light
notes: copies: 2 + 2
B2: the Kd in test [1] turned out to be 2600 nM; in test [2], 640 nM; in test [3], 1200 nM; in test [4], 5900 nM; in test [5] it was 2800 nM; in test [6], 530 nM. Besides, the values for the Kd in test [7] and in test [8] were 5000 nM and 4800 nM, respectively.

B3: M103205H795-MY446/M103202L889-SK1 (antibody, human IgG1, kappa)
heavy: B2 heavy with E234H
light: B1 light
notes: copies: 2 + 2
As for B3, the Kd turned out to be 2900 nM in test [1]; 480 nM in test [2]; 630 nM in test [3]; 7100 nM in test [4]; 2400 nM in test [5]; 260 nM in test [6]. Further, the Kd in test [7] was found to be 2200 nM; in test [8], 2500 nM.

B4: M103205H795-MY441/M103202L889-SK1 (antibody, human IgG1, kappa)
heavy: B2 heavy with E234A
light: B1 light
notes: copies: 2 + 2
As for B4, the Kd was 2600 nM in test [1]; 650 nM in test [2]; 880 nM in test [3]; 8100 nM in test [4]; 2800 nM in test [5]; 360 nM in test [6]. Moreover, the Kd in test [7] came to 3300 nM; in test [8], 3800 nM.

B5: M103205H795-MY447/M103202L889-SK1 (antibody, human IgG1, kappa)
heavy: B2 heavy with E234I
light: B1 light
notes: copies: 2 + 2
For the molecule B5, the Kd in test [1] worked out at 1100 nM; in test [2] it was 98 nM; in test [3], 230 nM; in test [4], 4000 nM; in test [5], 440 nM; in test [6] it was 97 nM. Also, the results for the Kd in test [7] and in test [8] were 880 nM and 990 nM, respectively.

B6: M103205H795-MY445/M103202L889-SK1 (antibody, human IgG1, kappa)
heavy: B2 heavy with E234G
light: B1 light
notes: copies: 2 + 2
For B6, the Kd turned out to be 3500 nM in test [1]; 1200 nM in test [2]; 1400 nM in test [3]; 9500 nM in test [4]; 4200 nM in test [5]; 560 nM in test [6]. In addition, the Kd in test [7] came to 5500 nM; in test [8], 5600 nM.

B7: M103205H795-MY448/M103202L889-SK1 (antibody, human IgG1, kappa)
heavy: B2 heavy with E234K
light: B1 light
notes: copies: 2 + 2
On to B7, for which the Kd in test [1] was 6500 nM; in test [2], 2200 nM; in test [3], 2300 nM; in test [4] it was 13000 nM; in test [5], 8400 nM; in test [6] it was 930 nM. Moreover, the values for the Kd in test [7] and in test [8] were 7500 nM and 9600 nM, respectively.

B8: M103205H795-MY442/M103202L889-SK1 (antibody, human IgG1, kappa)
heavy: B2 heavy with E234D
light: B1 light
notes: copies: 2 + 2
With B8, the Kd in test [1] was 2100 nM; in test [2], 420 nM; in test [3], 1100 nM; in test [4], 4700 nM; in test [5], 1800 nM; in test [6], 460 nM. In addition, the dissociation constant (Kd) in test [7] was determined as 4200 nM; in test [8], 4400 nM.

B9: M103205H795-MY265/M103202L889-SK1 (antibody, human IgG1, kappa)
heavy: B2 heavy with E234P
light: B1 light
notes: also called MS103205H795-MY265; copies: 2 + 2
For the molecule B9, the Kd in test [1] was 2000 nM; in test [2] it was 440 nM; in test [3], 590 nM; in test [4], 54000 nM; in test [5] it was 2200 nM; in test [6], 210 nM. In addition, the Kd in test [7] was determined as 1900 nM; in test [8], 2200 nM.

B10: M103205H795-MY444/M103202L889-SK1 (antibody, human IgG1, kappa)
heavy: B2 heavy with E234F
light: B1 light
notes: copies: 2 + 2
Consider B10, for which the Kd amounted to 1600 nM in test [1]; 140 nM in test [2]; 300 nM in test [3]; 5200 nM in test [4]; 740 nM in test [5]; 110 nM in test [6]. Also, the Kd was 1100 nM in test [7] and 1200 nM in test [8].

B11: M103205H795-MY459/M103202L889-SK1 (antibody, human IgG1, kappa)
heavy: B2 heavy with A233D, E234P
light: B1 light
notes: copies: 2 + 2
B11: the Kd in test [1] was 3200 nM; in test [2], 560 nM; in test [3], 1100 nM; in test [4], 8700 nM; in test [5], 2500 nM; in test [6], 390 nM. In addition, the Kd is 4700 nM in test [7] and 5000 nM in test [8].
